In article PMC2211816:

Target: GST-KLF2 (UniProt Q60843 1-354)
Assay: EMSA

Chain of GST-KLF2 (Q60843 whole entry): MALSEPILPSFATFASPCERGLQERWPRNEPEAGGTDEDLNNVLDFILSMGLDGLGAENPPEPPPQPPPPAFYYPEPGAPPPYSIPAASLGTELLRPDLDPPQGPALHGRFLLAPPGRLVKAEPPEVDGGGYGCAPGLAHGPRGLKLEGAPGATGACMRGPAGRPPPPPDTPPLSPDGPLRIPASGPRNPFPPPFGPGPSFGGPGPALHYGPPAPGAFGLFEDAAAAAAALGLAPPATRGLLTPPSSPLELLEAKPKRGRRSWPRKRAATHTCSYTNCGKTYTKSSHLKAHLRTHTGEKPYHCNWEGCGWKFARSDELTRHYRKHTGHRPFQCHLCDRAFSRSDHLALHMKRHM

B1: eNOS promoter KLF site (-644 to -652) probe (dsDNA)
DNA 1: GTCATGGGGGTGTGGGGGTTCCAGGAAAT
DNA 2: ATTTCCTGGAACCCCCACACCCCCATGAC
- binding result: binds
